In paper PMC4337903, “Simian Virus Large T Antigen Interacts with the N-Terminal Domain of the 70 kD Subunit of Replication Protein A in the Same Mode as Multiple DNA Damage Response Factors” (PLoS ONE, 2015):

B1: GST-RPA70N (N-terminal domain of the 70 kDa subunit of Replication Protein A, residues 1-120) (domain or fragment, UniProt P27694 1-120, looked up)
chain: MVGQLSEGAIAAIMQKGDTNIKPILQVINIRPITTGNSPPRYRLLMSDGLNTLSSFMLATQLNPLVEEEQLSSNCVCQIHRFIVNTLKDGRRVVILMELEVLKSAEAVGVKIGNPVPYNE
notes: also called GST-RPA70N WT; source: Rosetta 2 cells, purified (glutathione agarose)

Assays:
[1] = target: RPA70N (aa 1-120 of RPA70) used for ITC and NMR (UniProt P27694); test: ITC; 10 μl injections of 336 μM Tag(84-130) into 60 μM RPA70N in the cell; 25 mM Tris-Cl pH 7.5, 100 mM NaCl; single site model; average of three trials
[2] = target: T1, Simian virus 40 Large T-antigen (Tag), full length (Simian virus 40 (SV40), UniProt P03070 1-708); test: pull-down; GST-RPA70N (WT or R41/43E) or GST on glutathione beads, purified full-length Tag as prey; 4°C, 30 mM HEPES KOH pH 7.8, 10 mM KCl, 7 mM MgCl2, 10 μM ZnCl2, 2% non-fat dry milk; washes with 75 mM KCl; blot with pAb101 and anti-GST; also without antibody or after pre-incubation of Tag with control non-immune IgG; details: both partners purified
T1 construct: SV40 Large T antigen, full length; The methods tell the removal of GST from full-length Tag for 'ITC and NMR studies'; for the pull-down the legend says only 'purified as described in Materials and Methods'; also called Large Tumor Antigen; full-length Tag; source: Rosetta 2 cells, GST-tagged, purified (glutathione agarose), treated with H3C PreScission protease

Row | Molecule | Kd [1] [nM] | binding result [2]
1 | Tag(84-130), GST removed (domain or fragment) | 1280 | 
2 | B1 |  | binds
